The source of these data is publication PMC4827770 (Journal of molecular recognition : JMR, 2008).

The target of assay [1] is T1, murine JAM-A on L929 (L) cells (murine (endogenous in L929 cells), UniProt O88792 27-300).
T1 sequence (looked up): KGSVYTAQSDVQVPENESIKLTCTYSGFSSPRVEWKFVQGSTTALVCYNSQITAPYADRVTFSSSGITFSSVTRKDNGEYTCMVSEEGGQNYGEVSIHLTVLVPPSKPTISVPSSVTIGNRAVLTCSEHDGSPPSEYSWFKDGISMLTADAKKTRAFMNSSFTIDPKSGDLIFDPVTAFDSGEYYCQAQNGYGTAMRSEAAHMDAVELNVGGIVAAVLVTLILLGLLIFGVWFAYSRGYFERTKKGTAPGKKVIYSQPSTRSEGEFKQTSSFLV
Description: single molecule force spectroscopy.

Assay [2] deals with T1, murine JAM-A on L929 (L) cells. Description: single molecule force spectroscopy. The source holds these as a separate data set.

Like-named read-outs stand apart in the source and are kept apart here.

B1: reovirus attachment protein σ1 head domain plus a short region of the tail (residues 293–455) (domain or fragment)
chain: SPNLRYPIADVSGGIGMSPNYRFRQSMWIGIVSYSGSGLNWRVQVNSDIFIVDDYIHICLPAFDGFSIADGGDLSLNFVTGLLPPLLTGDTEPAFHNDVVTYGAQTVAIGLSSGGAPQYMSKNLWVEQWQDGVLRLRVEGGGSITHSNSKWPAMTVSYPRSFT
Consider B1, for which the koff (as a rule, the first-order rate constant of dissociation) in assay [1] is 0.067 ± 0.041 s⁻¹.

B2: chimeric murine JAM-A/Fc fusion protein (Fc fusion)
chain: KGSVYTAQSDVQVPENESIKLTCTYSGFSSPRVEWKFVQGSTTALVCYNSQITAPYADRVTFSSSGITFSSVTRKDNGEYTCMVSEEGGQNYGEVSIHLTVLVPPSKPTISVPSSVTIGNRAVLTCSEHDGSPPSEYSWFKDGISMLTADAKKTRAFMNSSFTIDPKSGDLIFDPVTAFDSGEYYCQAQNGYGTAMRSEAAHMDAVELNVGG
For the molecule B2, in assay [2], the off-rate (koff) was determined as 0.688 ± 0.349 s⁻¹.
